Test results from the supplement of paper PMC9112550, “Optimization of the antimicrobial peptide Bac7 by deep mutational scanning” (BMC Biology, 2022).

Each sequence was assayed on Escherichia coli TOP10 (assay: shrunken log2 fold change of peptide-encoding DNA abundance (4.5 h post-induction vs induction); higher = less antimicrobial activity (less host growth inhibition)). Conditions: time post-induction: 4.5 h; library: site-saturation at positions 5, 18, 19, 20.
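Also: peptides expressed intracellularly from a pBAD plasmid library in pooled LB shake-flask culture, induced with 0.3% L-arabinose, DNA abundance read by NGS, three biological replicates, DESeq2 with apeglm shrinkage.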

Which “shrunken log2 fold change” value does the source give for RRIRQRPPRLPRPRPRPTFFPRP here?
The value was -0.0813.

For RRIRERPPRLPRPRPRPFCFPRP, which “shrunken log2 fold change” value is on record?
The value was -0.106.

With RRIRTRPPRLPRPRPRPYLMPRP as the sequence, how does the “shrunken log2 fold change” value read?
Its value is -0.601.

Which “shrunken log2 fold change” value does the source give for RRIRVRPPRLPRPRPRPNQCPRP here?
Its value is -0.264.

Which “shrunken log2 fold change” value does the source give for RRIRPRPPRLPRPRPRPYKDPRP here?
Its value is -0.477.

With RRIRHRPPRLPRPRPRPQHWPRP as the sequence, how does the “shrunken log2 fold change” value read?
The value was -0.00395.

How did the “shrunken log2 fold change” value turn out when RRIRIRPPRLPRPRPRPRIPPRP was run?
Its value is -0.324.

For RRIRCRPPRLPRPRPRPCEQPRP, which “shrunken log2 fold change” value is on record?
The value was -0.222.

RRIRTRPPRLPRPRPRPSCNPRP was tested. Which “shrunken log2 fold change” value did it give?
The value was -0.768.

How did the “shrunken log2 fold change” value turn out when RRIRMRPPRLPRPRPRPALSPRP was run?
Its value is 0.539.

How did the “shrunken log2 fold change” value turn out when RRIRARPPRLPRPRPRPLAFPRP was run?
Its value is 0.703.

How did the “shrunken log2 fold change” value turn out when RRIRQRPPRLPRPRPRPHPAPRP was run?
Its value is -0.114.

How did the “shrunken log2 fold change” value turn out when RRIRTRPPRLPRPRPRPSIAPRP was run?
The value was -0.281.

RRIRMRPPRLPRPRPRPTDRPRP was tested. Which “shrunken log2 fold change” value did it give?
Its value is 0.894.

For RRIRNRPPRLPRPRPRPSLAPRP, which “shrunken log2 fold change” value is on record?
The value was 0.0683.

RRIRARPPRLPRPRPRPHNIPRP was tested. Which “shrunken log2 fold change” value did it give?
The value was -0.124.

With RRIRERPPRLPRPRPRPYKEPRP as the sequence, how does the “shrunken log2 fold change” value read?
The value was -0.117.

Which “shrunken log2 fold change” value does the source give for RRIRHRPPRLPRPRPRPKLIPRP here?
The value was -0.0143.

How did the “shrunken log2 fold change” value turn out when RRIRVRPPRLPRPRPRPKKKPRP was run?
Its value is -0.356.

Which “shrunken log2 fold change” value does the source give for RRIRNRPPRLPRPRPRPTPFPRP here?
Its value is -0.07.

How did the “shrunken log2 fold change” value turn out when RRIRHRPPRLPRPRPRPINKPRP was run?
The value was -0.652.

How did the “shrunken log2 fold change” value turn out when RRIRRRPPRLPRPRPRPEVIPRP was run?
Its value is -0.0658.

Which “shrunken log2 fold change” value does the source give for RRIRCRPPRLPRPRPRPWDQPRP here?
Its value is 0.0182.

With RRIRCRPPRLPRPRPRPFDQPRP as the sequence, how does the “shrunken log2 fold change” value read?
The value was -0.136.

For RRIRDRPPRLPRPRPRPEWFPRP, which “shrunken log2 fold change” value is on record?
The value was 0.257.

RRIRIRPPRLPRPRPRPITQPRP was tested. Which “shrunken log2 fold change” value did it give?
The value was -0.186.

With RRIRLRPPRLPRPRPRPIYKPRP as the sequence, how does the “shrunken log2 fold change” value read?
The value was -0.489.

With RRIRKRPPRLPRPRPRPKMLPRP as the sequence, how does the “shrunken log2 fold change” value read?
The value was 0.185.

RRIRYRPPRLPRPRPRPPRHPRP was tested. Which “shrunken log2 fold change” value did it give?
The value was 0.00412.

With RRIRGRPPRLPRPRPRPSSHPRP as the sequence, how does the “shrunken log2 fold change” value read?
Its value is -0.0172.

With RRIRHRPPRLPRPRPRPMADPRP as the sequence, how does the “shrunken log2 fold change” value read?
The value was 0.0417.

Which “shrunken log2 fold change” value does the source give for RRIRIRPPRLPRPRPRPIFTPRP here?
The value was 0.0285.

For RRIRGRPPRLPRPRPRPSYNPRP, which “shrunken log2 fold change” value is on record?
Its value is 0.0742.

Which “shrunken log2 fold change” value does the source give for RRIRDRPPRLPRPRPRPFDYPRP here?
The value was -0.224.

For RRIRLRPPRLPRPRPRPHIIPRP, which “shrunken log2 fold change” value is on record?
Its value is 0.0077.

For RRIRGRPPRLPRPRPRPEIIPRP, which “shrunken log2 fold change” value is on record?
The value was 1.5.

How did the “shrunken log2 fold change” value turn out when RRIRCRPPRLPRPRPRPAFMPRP was run?
The value was 0.117.

For RRIRGRPPRLPRPRPRPVNEPRP, which “shrunken log2 fold change” value is on record?
The value was 0.517.

For RRIRSRPPRLPRPRPRPGERPRP, which “shrunken log2 fold change” value is on record?
Its value is 0.637.

With RRIRERPPRLPRPRPRPFKCPRP as the sequence, how does the “shrunken log2 fold change” value read?
The value was -0.457.

With RRIRYRPPRLPRPRPRPWHMPRP as the sequence, how does the “shrunken log2 fold change” value read?
The value was -0.311.

For RRIRRRPPRLPRPRPRPMHIPRP, which “shrunken log2 fold change” value is on record?
Its value is 0.238.

RRIRGRPPRLPRPRPRPAKPPRP was tested. Which “shrunken log2 fold change” value did it give?
Its value is 0.82.

For RRIRFRPPRLPRPRPRPKQHPRP, which “shrunken log2 fold change” value is on record?
The value was -0.176.

With RRIRDRPPRLPRPRPRPARVPRP as the sequence, how does the “shrunken log2 fold change” value read?
Its value is 0.948.

With RRIRCRPPRLPRPRPRPSKGPRP as the sequence, how does the “shrunken log2 fold change” value read?
The value was -0.212.

With RRIRDRPPRLPRPRPRPDRCPRP as the sequence, how does the “shrunken log2 fold change” value read?
Its value is -0.149.

Which “shrunken log2 fold change” value does the source give for RRIRARPPRLPRPRPRPRVWPRP here?
The value was 0.827.

How did the “shrunken log2 fold change” value turn out when RRIRSRPPRLPRPRPRPEQMPRP was run?
Its value is -0.0112.

For RRIRNRPPRLPRPRPRPPLDPRP, which “shrunken log2 fold change” value is on record?
The value was 0.0724.

How did the “shrunken log2 fold change” value turn out when RRIRDRPPRLPRPRPRPGIWPRP was run?
Its value is 0.252.

RRIRWRPPRLPRPRPRPMWVPRP was tested. Which “shrunken log2 fold change” value did it give?
The value was -0.0542.

RRIRTRPPRLPRPRPRPMFSPRP was tested. Which “shrunken log2 fold change” value did it give?
The value was -0.263.

Which “shrunken log2 fold change” value does the source give for RRIRSRPPRLPRPRPRPRARPRP here?
The value was 0.408.

For RRIRMRPPRLPRPRPRPHAHPRP, which “shrunken log2 fold change” value is on record?
Its value is -0.0269.

RRIRERPPRLPRPRPRPATAPRP was tested. Which “shrunken log2 fold change” value did it give?
The value was 0.147.

For RRIRGRPPRLPRPRPRPRTEPRP, which “shrunken log2 fold change” value is on record?
Its value is 0.755.

With RRIRHRPPRLPRPRPRPDCAPRP as the sequence, how does the “shrunken log2 fold change” value read?
Its value is 0.196.

For RRIRNRPPRLPRPRPRPPMWPRP, which “shrunken log2 fold change” value is on record?
The value was -0.115.

For RRIRLRPPRLPRPRPRPGGSPRP, which “shrunken log2 fold change” value is on record?
Its value is 0.259.

Which “shrunken log2 fold change” value does the source give for RRIRLRPPRLPRPRPRPWVGPRP here?
The value was 0.233.

With RRIRVRPPRLPRPRPRPNAPPRP as the sequence, how does the “shrunken log2 fold change” value read?
The value was 0.379.

For RRIRPRPPRLPRPRPRPQCVPRP, which “shrunken log2 fold change” value is on record?
Its value is 0.14.

RRIRWRPPRLPRPRPRPVHYPRP was tested. Which “shrunken log2 fold change” value did it give?
Its value is -0.0467.

Which “shrunken log2 fold change” value does the source give for RRIRWRPPRLPRPRPRPNFCPRP here?
Its value is 0.0758.

RRIRNRPPRLPRPRPRPIAMPRP was tested. Which “shrunken log2 fold change” value did it give?
The value was -0.0835.

How did the “shrunken log2 fold change” value turn out when RRIRFRPPRLPRPRPRPFTAPRP was run?
The value was -0.662.

How did the “shrunken log2 fold change” value turn out when RRIRTRPPRLPRPRPRPMKNPRP was run?
Its value is -0.146.

With RRIRARPPRLPRPRPRPRPNPRP as the sequence, how does the “shrunken log2 fold change” value read?
Its value is 0.493.

With RRIRQRPPRLPRPRPRPIWNPRP as the sequence, how does the “shrunken log2 fold change” value read?
Its value is -0.183.

Which “shrunken log2 fold change” value does the source give for RRIRIRPPRLPRPRPRPQRPPRP here?
Its value is -0.465.

How did the “shrunken log2 fold change” value turn out when RRIRQRPPRLPRPRPRPITKPRP was run?
Its value is -0.0284.

RRIRFRPPRLPRPRPRPHKGPRP was tested. Which “shrunken log2 fold change” value did it give?
The value was -0.0598.

With RRIRGRPPRLPRPRPRPTISPRP as the sequence, how does the “shrunken log2 fold change” value read?
The value was 0.534.

RRIRFRPPRLPRPRPRPYGRPRP was tested. Which “shrunken log2 fold change” value did it give?
The value was -0.0926.

Which “shrunken log2 fold change” value does the source give for RRIRIRPPRLPRPRPRPKRRPRP here?
Its value is 0.123.

Which “shrunken log2 fold change” value does the source give for RRIRCRPPRLPRPRPRPLTHPRP here?
Its value is -0.345.

For RRIRCRPPRLPRPRPRPVKIPRP, which “shrunken log2 fold change” value is on record?
The value was 0.108.

For RRIRWRPPRLPRPRPRPYYTPRP, which “shrunken log2 fold change” value is on record?
The value was -0.899.

For RRIRFRPPRLPRPRPRPYTVPRP, which “shrunken log2 fold change” value is on record?
Its value is -0.00354.

With RRIRTRPPRLPRPRPRPNQLPRP as the sequence, how does the “shrunken log2 fold change” value read?
Its value is -0.101.

How did the “shrunken log2 fold change” value turn out when RRIRRRPPRLPRPRPRPSGRPRP was run?
Its value is 0.0215.

How did the “shrunken log2 fold change” value turn out when RRIRRRPPRLPRPRPRPEMMPRP was run?
The value was 0.345.

For RRIRARPPRLPRPRPRPILMPRP, which “shrunken log2 fold change” value is on record?
Its value is 0.143.

How did the “shrunken log2 fold change” value turn out when RRIRCRPPRLPRPRPRPWMIPRP was run?
Its value is -0.0852.

RRIRGRPPRLPRPRPRPPTWPRP was tested. Which “shrunken log2 fold change” value did it give?
The value was 0.466.

Which “shrunken log2 fold change” value does the source give for RRIRRRPPRLPRPRPRPRWHPRP here?
Its value is 0.353.

Which “shrunken log2 fold change” value does the source give for RRIRSRPPRLPRPRPRPYEHPRP here?
The value was -0.493.

For RRIRHRPPRLPRPRPRPKVPPRP, which “shrunken log2 fold change” value is on record?
The value was 0.0497.

For RRIRTRPPRLPRPRPRPLFCPRP, which “shrunken log2 fold change” value is on record?
The value was -0.287.

RRIRCRPPRLPRPRPRPTEKPRP was tested. Which “shrunken log2 fold change” value did it give?
The value was -0.293.

For RRIRTRPPRLPRPRPRPTGTPRP, which “shrunken log2 fold change” value is on record?
The value was -0.0721.

RRIRERPPRLPRPRPRPICNPRP was tested. Which “shrunken log2 fold change” value did it give?
The value was -1.25.

RRIRQRPPRLPRPRPRPAREPRP was tested. Which “shrunken log2 fold change” value did it give?
The value was -0.0167.

For RRIRQRPPRLPRPRPRPFKKPRP, which “shrunken log2 fold change” value is on record?
Its value is 0.0942.

RRIRNRPPRLPRPRPRPFYPPRP was tested. Which “shrunken log2 fold change” value did it give?
The value was -0.5.

Which “shrunken log2 fold change” value does the source give for RRIRWRPPRLPRPRPRPWLIPRP here?
The value was 0.112.

RRIRPRPPRLPRPRPRPNHKPRP was tested. Which “shrunken log2 fold change” value did it give?
The value was -0.385.

For RRIRVRPPRLPRPRPRPMICPRP, which “shrunken log2 fold change” value is on record?
Its value is -0.0606.

Which “shrunken log2 fold change” value does the source give for RRIRPRPPRLPRPRPRPVMQPRP here?
The value was 0.136.

With RRIRPRPPRLPRPRPRPTCGPRP as the sequence, how does the “shrunken log2 fold change” value read?
The value was -0.0302.

RRIRHRPPRLPRPRPRPGIAPRP was tested. Which “shrunken log2 fold change” value did it give?
The value was -0.0902.

Which “shrunken log2 fold change” value does the source give for RRIRFRPPRLPRPRPRPHSKPRP here?
The value was -0.327.

With RRIRVRPPRLPRPRPRPQSPPRP as the sequence, how does the “shrunken log2 fold change” value read?
Its value is -0.221.

How did the “shrunken log2 fold change” value turn out when RRIRSRPPRLPRPRPRPFARPRP was run?
Its value is -0.172.

With RRIRTRPPRLPRPRPRPVTYPRP as the sequence, how does the “shrunken log2 fold change” value read?
The value was 0.0141.

With RRIRARPPRLPRPRPRPNCIPRP as the sequence, how does the “shrunken log2 fold change” value read?
Its value is -0.113.

RRIRNRPPRLPRPRPRPQCIPRP was tested. Which “shrunken log2 fold change” value did it give?
Its value is -0.135.

With RRIRARPPRLPRPRPRPVRTPRP as the sequence, how does the “shrunken log2 fold change” value read?
The value was 1.06.
